Tested on: patients with Stage IV NSCLC
Experiment: Phase III study: safety, adverse events graded according to NCI CTCAE v4.0
[1] = All treated patients, Chemo N = 263, Atezo N = 286
[2] = All treated patients, Chemo N = 263, Atezo N = 286, listed as atezolizumab

## atezolizumab
[1]
  AE leading to any treatment withdrawal, number of patients: 18
  All Deaths, % of patients: 43.7%
  All Deaths, number of patients: 125
  All Grade AE, any cause, % of patients: (90.2%)
  All Grade AE, any cause, number of patients: 258
  Cause of death: Adverse Event, % of patients: 3.8%
  Cause of death: Adverse Event, number of patients: 11
  Cause of death: Other, including deaths collected by public records, % of patients: 3.8%
  Cause of death: Other, including deaths collected by public records, number of patients: 11
  Cause of death: Progressive disease, % of patients: 36.0%
  Cause of death: Progressive disease, number of patients: 103
  Grade 3-4 AE, % of patients: (31.8%)
  Grade 3-4 AE, number of patients: 91
  Grade 5 AE, % of patients: (3.8%)
  Grade 5 AE, number of patients: 11
  Related AE (TRAE), % of patients: (60.5%)
  Related AE, number of patients: 173
  Serious Adverse Event, % of patients: (28.3%)
  Serious Adverse Event, number of patients: 81
  Treatment-Related SAE, % of patients: (8.4%)
  Treatment-Related SAE, number of patients: 24
  Treatment-related Grade 3-4 AE, % of patients: (12.9%)
  Treatment-related Grade 3-4 AE, number of patients: 37
  Treatment-related Grade 5 AE, number of patients: 0
[2]
  Related AE (TRAE), % of patients: 60.5%
  Treatment-related Grade 3-4 AE, % of patients: 12.9%
Atezo n = 286, Chemo n = 263
  Treatment-related AE Anemia, All Grades, %: (3.5) %
  Treatment-related AE Asthenia, All Grades, %: (7.3) %
  Treatment-related AE Asthenia, Grade 3-4, %: 0.3%
  Treatment-related AE Constipation, All Grades, %: (3.5) %
  Treatment-related AE Constipation, Grade 3-4, %: 0.3%
  Treatment-related AE Decreased appetite, All Grades, %: (7.0) %
  Treatment-related AE Decreased appetite, Grade 3-4, %: 0.7%
  Treatment-related AE Decreased white blood cell count, All Grades, %: (1.0) %
  Treatment-related AE Fatigue, All Grades, %: (7.7) %
  Treatment-related AE Fatigue, Grade 3-4, %: 0.7%
  Treatment-related AE Hyperkalemia, All Grades, %: (2.1) %
  Treatment-related AE Hyperkalemia, Grade 3-4, %: 1.0%
  Treatment-related AE Hyponatremia, All Grades, %: (1.7) %
  Treatment-related AE Hyponatremia, Grade 3-4, %: 1.0%
  Treatment-related AE Leukopenia, All Grades, %: (1.0) %
  Treatment-related AE Leukopenia, Grade 3-4, %: 0.3%
  Treatment-related AE Nausea, All Grades, %: (7.0) %
  Treatment-related AE Nausea, Grade 3-4, %: 0.3%
  Treatment-related AE Neutropenia, All Grades, %: (1.0) %
  Treatment-related AE Neutropenia, Grade 3-4, %: 0.7%
  Treatment-related AE Pancytopenia, All Grades, %: (0.3) %
  Treatment-related AE Pancytopenia, Grade 3-4, %: 0.3%
  Treatment-related AE Thrombocytopenia, All Grades, %: (1.7) %
  Treatment-related AE Thrombocytopenia, Grade 3-4, %: 0.3%
  Treatment-related AE Vomiting, All Grades, %: (1.4) %
  Treatment-related AE Vomiting, Grade 3-4, %: 0.3%
Chemo N = 263, Atezo N = 286
  Grade 5 AE: Acute myocardial infarction, %: 0.3%
  Grade 5 AE: Aspiration, %: 0.3%
  Grade 5 AE: COPD, %: 0.3%
  Grade 5 AE: Cardiac arrest, %: 0.3%
  Grade 5 AE: Cardiac disorders, %: 0.7%
  Grade 5 AE: Cerebral infarction, %: 0.3%
  Grade 5 AE: Death, %: 0.7%
  Grade 5 AE: Gastrointestinal disorders, %: 0.3%
  Grade 5 AE: General disorders and administration site conditions, %: 0.7%
  Grade 5 AE: Infections and infestations, %: 0.3%
  Grade 5 AE: Mechanical ileus, %: 0.3%
  Grade 5 AE: Nervous system disorders, %: 0.3%
  Grade 5 AE: Product issues, Device occlusion, %: 0.3%
  Grade 5 AE: Pulmonary embolism, %: 0.3%
  Grade 5 AE: Respiratory, thoracic and mediastinal disorders, %: 1.0%
  Grade 5 AE: Sepsis, %: 0.3%
  Grade 5 AE: Total number of patients: 11
  Grade 5 AE: Total, % of patients: 3.8%
Safety population: 286 patients Arm A, 263 Arm B
  Safety profile compared to platinum-based chemotherapy (in words): favorable safety profile

— patent US20230312723A1, “METHODS AND COMPOSITIONS FOR NON-SMALL CELL LUNG CANCER IMMUNOTHERAPY” (Genentech, Inc., priority 2020, published 2023)
